Data as given in article PMC4643373.

Molecular target: FMRP RGG box (UniProt Q06787 527-554)
Assay: EMSA

B1: NR2B mRNA (32 nt) (structured_RNA)
RNA: GGGUACGGGAGGGUAAGGCUGUGGGUCGCGUG
  binding result: binds
